# The supplement of paper PMC9170038
# System: K4 kissing-loop RNA reporter
# Assay: apparent KD of K4 kissing-loop reporter; higher = weaker reporter binding
# Conditions: Eterna round: R107; input ligand: theophylline 20 uM
# Protocol: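 RNA-MaP round R107: designed RNA switches with theophylline, tryptophan, arginine or FMN aptamers are transcribed on-chip within common flanks. They are titrated with a labelled K4 kissing-loop RNA reporter in RNA-MaP buffer (100 mM Tris pH 7.5, 80 mM KCl, 4 mM MgCl2), without ligand or with the indicated ligand. Median apparent KD per design.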
# 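Also: bound reporter read as fluorescence of individual clusters on recovered sequencing chips by microscopy, with normalized cluster intensities fitted with a binding model.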
row,Sequence,apparent KD of K4 kissing-loop reporter
1,AGGCACGAGCAAGGAUAUCGAGUAGAGUGAUGUUCUGCCUGGGUUGGCGCGGAAGGGCCUUCCCAGCGAGAAGGUGCUCGUGCCU [#2 Same State - FMN A Attempt #10 (HarryS)],615 nM
2,AUGUUGAGCGGAAGGAGCGGCUGAGCCAGUGAUGUUGGUUAAUCCAAGUGAUGUUGGAAAAGCCAGGUAGGUCGCCGCUUUACGU [whbob_SS_Arginine_B_2t144],926 nM
3,CGACACUCAGCGGCCGCCACUGAGCUAUAUUUUGCAGGUGCCCGAGUAAGUGAUGUUUACUUCGUCAGGACCGGGCUGGUUUCAA [theeternabot_sameState_KL_Trp_B_20],294 nM
4,GCCGUAGAUUGAAGGAGCGUGGAACUAUGGCUUGAACAGUGAUGUUGUUUAUCUAGGUAGCCACAGGUAGGUCGCAAUCUACGGC,182 nM
5,UGACUGGAUGGAAGGAGCGCUAAACUCCUAGUGAUGUUAGGGACACGAGACAAAGUCUUGAGGCAGGUAGGUCGCCAUCUAGUCU [FiskerMod 8 - Jieux - Same State - Arginine B],250 nM
6,UCGAGUUGACGAAGAGUCAACUCGUGUGAUACCAGUGACGAAAGUCACCCUUGGCAGCACUAUGCUAGUGAUGUUGGUAUUUAAG [#08 K4 Theophylline A Same State],105 nM
7,AGAUUCGACACGGCCGCCACUCGUGGUGGAUUACCGAGUGUCGAAGUUGAGUGAUGUUCAAGUACGAGGACCGGGUGUUGAGUCU [KL-XTryp-B9 #analogue],163 nM
8,AGGCACGAGCAAGGAUAUUGAGUAGAGUGAUGUUCUGCCUGGGUUGGCUCGCAAGAGCCUUCUCAGCGAGAAGGUGCUCGUGCCU [#2 Same State - FMN A Attempt #25 (HarryS)],614 nM
9,UGUCGGUGAAGAAUGUUAGUGAUGUUGGCACGAGGACCGGUACGGCCGCCACUCGGUAAUCAUCGCAAUUAUCGAUGGCGUAGCC [theeternabot_exclusion_KL_Trp_A_3],166 nM
10,AUUAAUUUCAGAGGAUAUCGUGAUUUUAUUUAAUUUAUUCAUUUGUGCAGUGAUGUUGCUAAUAUUCGAGAAGGCUGAUUUAUAA [whbob_Ex_FMNB__2th224],110 nM
11,AUAACAAUCUGAAGGAGCGAGAAAGCAGUGAUGUUGCAAAGGCGAGUGAUGUUCGCAAUAACUCAGGUAGGUCGCAGAAACAAGA [Same State Arginine B],193 nM

# Same assay, conditions: Eterna round: R107; input ligand: tryptophan 2.4 mM
row,Sequence,apparent KD of K4 kissing-loop reporter
1,CCAUCGCUAUUCGAUACCAGUCAAAAUAAAAUAAUAAAUCUGCAAAGGAGUGAUGUUCCAGACCCUUGGCAGCGAAUAGUGAUGG [Theophylline B K4 2],723 nM
2,GAGAUAGCGACGGCCGCCACUAGUGAUGUUAGUGCUGGUAGAUAGAUACUGGAACAGAAAUGACGUAGGACCGGGUCAGAUAGAG [#01 K4 Tryptophan B Exclusion],247 nM
3,CCGCCAUCGUCAGAUACCAGGCUGAUGGCGGUAACCGCCAAGCGAGUGAUGUUCGCAUCAGUCCCUUGGCAGCUGACGAAGACUG [#16 K4 Theophylline B Same State],133 nM
4,UAAUUUAUCGCAGGAUAUAGCCAUAAACCGGUCCUAAGGGACCUUCUGGGCAGUGAUGUUGCCCGGCUAGAAGGGCGAGUUCACC [Anenlagema],105 nM
5,ACUUGAGCACAAAGCACACCAAGCAGUAGGUAGGAUAUCCGGCUUAGGAGAAGGACCAUGCAGUGAUGUUGCAUGCUCCUCCAUG [Onraordi],93 nM
6,UGACAUUGCUCAGAUACCAGACAAGAGGAUCACCCUUGUGCCAAACGUACAAUAAUAAUUGUCCCUUGGCAGCUGAGCAAUGUCU [TheoBX 14],51.6 nM
7,UUAUCAUCAGCGGCCGCCACUGCAAAUUGGAGUGAUGUUCCAAGCGUGGAUAUUGAAAUUACUAGUAGGACCGGGUUGAUGAAUU [AK 2 Ex Trypt B],159 nM
8,CUUAAGAUAUGAGUGAUGUUUAUGUCCGAAGGAGCGUGCGAAAGUACAGGUAGGUCGCGGAUGUGAGUGAUGUUCAUGUAAGCGA [KL-XArg-A13 #analogue],106 nM
9,UGAUAGGACAGAAGGAGCGGAAGUGAUGUUUCCAAAAGAUAUGGUCGACAAAGUCGACUUUUCCAGGUAGGUCGCUGUCCUAUCU [KL-XARG-B18],66.6 nM
10,GGUGAUGAGCACGAUACCAGCCUCGGAGCCAGUGAUGUUGGCCCAAUUUAAAAUAAGAUAGGCCCUUGGCAGCGUGACGAUGGCU [Rainle],643 nM
11,AGAAACUUGUAUGUCGAGUGUGCGCGCGAUACCAGCCAAAUGGAUGGCCCUUGGCAGCGCUGCGAGUGAUGUUCGCCCGCUUGAC [#18 K4 Theophylline A Exclusion],174 nM
12,GUUACGCAUGGAAGGAGCGCGAUAAUAUUAAGUGAGUGAUGUUCACAAAGAAAAUAAAUAACGCAGGUAGGUCGCCAUGUGUAAC [Ex Arginine B K4 4],81.8 nM
13,ACGUAGUUCUAGGAUACCAGCCAAGGUGCCAGGACAAAAGUCCUGGCAGUCAGUGAUGUUGGCCCUUGGCAGCCUAGAACUACGA [Omei KL Theo B Exc B v8],218 nM
14,AAGCAGUCACUCGAAGCCAUCGAAGAUGGACGAGGACCGGUACGGCCGCCACUCGGAGUGAUGUUCCGAAGACUGCAAAAUAAAA,469 nM
15,CCAUCGCUAUUCGAUACCAGUCAUCAAAUCUUUGGUUUGAUAAAGGAGUGAUGUUCCCAAGACCCUUGGCAGCGAAUAGUGAUGG [Theophylline B K4 10],230 nM
16,CAUAGACAAGUGAUGUUUGUCAUAACCGAAGGAGCGUCUUUAAAGACAGGUAGGUCGCGGAUUAAUUAAGUUAUGAUUCUUUUUA [JR_SSArginiA_Sub017],531 nM
17,UGAUAGGACAGAAGGAGCGGAGGUCGUCAAAGACGACCAAUAACGUUGAUAGGAGUGAUGUUCCAGGUAGGUCGCUGUCCUAUCU [ArgBX 29 #SwitchBubble #StaticStem],95.8 nM
18,AGACUACCACACUGUCAAUAGACAGUGAGCUAGGAUAUGCUGAUAAGCAGAAGGAGUGAUGUUCCUUGGUAGUCAAUAAAAUAAU [FmnAX 13 G29+U67],280 nM
19,UCCUGCAAUGGACCACGAAAGUGGAUCGAUACCAGAGUCGAAAGACUCCCUUGGCAGCGAGUGAUGUUCGAAGCAGGUAAAUAAA [#SwitchBubble 21 #K4Late],358 nM
20,ACGUGCACCAGUGAUGUUGGAAAAUAUGAAGGAGCGUGCGAAAGCACAGGUAGGUCGCAUAAUAGCACGAGCCACGAAAGUGGCA [#SwitchBubble 6 #K4Early #Sliding],102 nM
21,GGCCGGAAGGCGGCCGCCACUCAGUGAUGUUGUGUGAAAGAAAAGAAAAGAAGAAAGAAAAGAAAGAGGACCGGGCCAAACGGCC,580 nM
22,UACAAACGUAGUGAUGUUACGUACUCUGAUACCAGACAACUCUAAGUCCCUUGGCAGCAGUCAUUUUGCUUAUUAUUUUCUCAAA [JR_ExcTheophyA_Sub018],75.2 nM

row,Sequence,apparent KD of K4 kissing-loop reporter
1,CGAGUGAUGUUCGAAGAGUUGUUAAGCGAUACCAGCUAGGAAACUGGCCCUUGGCAGCGUAAUAAGUAAAUAAAUAAAUGAUCAC [whbob_Ex_Theo_A_th63],337 nM
2,UAAUAAAUUCCAGCGAUAUCGCUCUUCGAAGGAGCGGACGAAAGUCCAGGUAGGUCGCGAAGAGUGAUGUUCUUUGCGGCGCUGG [Omei KL Arginine A Exc A v4],226 nM
3,UUAAUUCCGGUGGUGUGUAGAACACAGUUACGAGGACCGGUACGGCCGCCACUCGGAUGCACUUUCAGUGAUGUUGAAAGCAUCA [Same State Tryptophan A GF 1],690 nM
4,UGACUGGACUGAAGGAGCGCUAAACUCCUAGUGAUGUUAGGAUAACGAGACAAAGUCUCGAAGCAGGUAGGUCGCAGUCUAGUCU,128 nM
5,UUAGAGAUCUCAGGAUAUCAGUGAUGUUGGUGUGCAGAUCUGAGAUAGAAUUCUAUCUCAGAUCAAUGAGAAGGGAGAUCUCAUU [AK5 Exc FMN B],142 nM
6,AAGUAGCUCUCGGCCGCCACUCCUCAGUGAUGUUGAGAUAUUAACUGCCAAUUGGCGUAUUUAAAGAGGACCGGGAGAGCUACAA [AK2 SS Tryptophan B],129 nM
7,UAAUUUAUGUCUUUAAUAUAAUAAUCAGAUACCAGUGAUUUAUGACACCCUUGGCAGCUGUAUAGAGUGAUGUUCUUAUGCUUAA [JR_ExcTheophyA_Sub011],179 nM
8,GUUGAUCAUGGAAGGAGCGCCCAUUGUCGACACGAGUGAUGUUCGUGUCGUUGAUUACGAGGGCAGGUAGGUCGCCGUGUGCUUU [Rabele],119 nM
9,GGCACUUUUGCUUGGAACCGUCAAGCUCUAUAGGAUAUGCCGAAAGGCAGAAGGAUGGACCUACAGAGUGAUGUUCUGCGUGCCU,218 nM
10,GAGAUAGAGGCGGCCGCCACUAGUGAUGUUAGUGAUGUUAGAUAGAGAAUAGAACAGAGGUAGGAUAGGACCGGGCCAGAUAGAG [whbob_SS_Tryp_B_w31],83.7 nM
11,AGGCACGAGCAAGGAUAUCGAGUAGAGUGAUGUUCUGCCUGGGUUGGCGCGGAAGGGCCUUCCCAGCGAGAAGGUGCUCGUGCCU [#2 Same State - FMN A Attempt #10 (HarryS)],786 nM
12,AUGUUGAGCGGAAGGAGCGGCUGAGCCAGUGAUGUUGGUUAAUCCAAGUGAUGUUGGAAAAGCCAGGUAGGUCGCCGCUUUACGU [whbob_SS_Arginine_B_2t144],832 nM
13,CGACACUCAGCGGCCGCCACUGAGCUAUAUUUUGCAGGUGCCCGAGUAAGUGAUGUUUACUUCGUCAGGACCGGGCUGGUUUCAA [theeternabot_sameState_KL_Trp_B_20],351 nM
14,GCCGUAGAUUGAAGGAGCGUGGAACUAUGGCUUGAACAGUGAUGUUGUUUAUCUAGGUAGCCACAGGUAGGUCGCAAUCUACGGC,178 nM
15,UGACUGGAUGGAAGGAGCGCUAAACUCCUAGUGAUGUUAGGGACACGAGACAAAGUCUUGAGGCAGGUAGGUCGCCAUCUAGUCU [FiskerMod 8 - Jieux - Same State - Arginine B],241 nM
16,UCGAGUUGACGAAGAGUCAACUCGUGUGAUACCAGUGACGAAAGUCACCCUUGGCAGCACUAUGCUAGUGAUGUUGGUAUUUAAG [#08 K4 Theophylline A Same State],127 nM
17,AGAUUCGACACGGCCGCCACUCGUGGUGGAUUACCGAGUGUCGAAGUUGAGUGAUGUUCAAGUACGAGGACCGGGUGUUGAGUCU [KL-XTryp-B9 #analogue],435 nM
18,AGGCACGAGCAAGGAUAUUGAGUAGAGUGAUGUUCUGCCUGGGUUGGCUCGCAAGAGCCUUCUCAGCGAGAAGGUGCUCGUGCCU [#2 Same State - FMN A Attempt #25 (HarryS)],594 nM
19,UGUCGGUGAAGAAUGUUAGUGAUGUUGGCACGAGGACCGGUACGGCCGCCACUCGGUAAUCAUCGCAAUUAUCGAUGGCGUAGCC [theeternabot_exclusion_KL_Trp_A_3],182 nM
20,AUUAAUUUCAGAGGAUAUCGUGAUUUUAUUUAAUUUAUUCAUUUGUGCAGUGAUGUUGCUAAUAUUCGAGAAGGCUGAUUUAUAA [whbob_Ex_FMNB__2th224],44.9 nM
21,AUAACAAUCUGAAGGAGCGAGAAAGCAGUGAUGUUGCAAAGGCGAGUGAUGUUCGCAAUAACUCAGGUAGGUCGCAGAAACAAGA [Same State Arginine B],119 nM
